Experimental data as given in US20230234992A1.

Molecular target: S Stabilizing Construct #21, CoV2_S2_1_pross mutant Spike (S) protein (SARS-CoV-2) (UniProt P0DTC2)

## CR3022 antibody (RBD Specific Antibody)
  fold affinity decrease: 17 fold
